Measurements: patent publication US20230183713A1, “SITE-SPECIFIC RECOMBINASES FOR EFFICIENT AND SPECIFIC GENOME EDITING” (TECHNISCHE UNIVERSITÄt DRESDEN, published 2023)

Legend:
[1] = molecular target: T1, Cre recombinase monomer with W315M mutation
T1 chain: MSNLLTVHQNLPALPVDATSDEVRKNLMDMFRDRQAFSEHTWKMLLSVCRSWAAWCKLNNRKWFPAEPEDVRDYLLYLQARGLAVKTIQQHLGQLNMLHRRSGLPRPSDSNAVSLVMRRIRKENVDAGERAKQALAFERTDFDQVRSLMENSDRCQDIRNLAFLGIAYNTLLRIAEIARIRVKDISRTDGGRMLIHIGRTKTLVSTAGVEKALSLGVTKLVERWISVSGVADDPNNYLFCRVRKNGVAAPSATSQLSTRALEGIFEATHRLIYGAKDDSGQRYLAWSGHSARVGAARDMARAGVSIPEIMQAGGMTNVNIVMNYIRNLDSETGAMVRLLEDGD

[2] = molecular target: T2, Cre recombinase monomer with Y324F mutation
T2 chain: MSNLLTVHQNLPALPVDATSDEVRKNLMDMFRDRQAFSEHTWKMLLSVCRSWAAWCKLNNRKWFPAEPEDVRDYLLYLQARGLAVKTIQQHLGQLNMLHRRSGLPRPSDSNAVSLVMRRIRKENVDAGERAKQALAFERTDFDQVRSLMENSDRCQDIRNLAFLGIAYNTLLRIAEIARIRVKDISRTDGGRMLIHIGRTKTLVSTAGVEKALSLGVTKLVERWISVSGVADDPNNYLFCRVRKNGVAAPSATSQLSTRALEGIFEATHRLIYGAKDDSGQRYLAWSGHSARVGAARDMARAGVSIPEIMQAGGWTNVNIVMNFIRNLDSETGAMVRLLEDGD

[3] = molecular target: T3, Cre recombinase monomer with Y324I mutation
T3 chain: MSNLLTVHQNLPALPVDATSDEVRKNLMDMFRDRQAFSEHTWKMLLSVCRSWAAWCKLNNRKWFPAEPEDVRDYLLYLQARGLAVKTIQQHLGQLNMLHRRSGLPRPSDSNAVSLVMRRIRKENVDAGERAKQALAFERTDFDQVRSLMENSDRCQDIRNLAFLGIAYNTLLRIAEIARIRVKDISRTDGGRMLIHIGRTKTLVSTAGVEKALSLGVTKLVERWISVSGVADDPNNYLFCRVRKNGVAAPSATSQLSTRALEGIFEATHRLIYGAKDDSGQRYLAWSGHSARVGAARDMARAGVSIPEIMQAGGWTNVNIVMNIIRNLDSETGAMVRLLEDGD

[4] = molecular target: T4, Cre recombinase monomer with W315S mutation
T4 chain: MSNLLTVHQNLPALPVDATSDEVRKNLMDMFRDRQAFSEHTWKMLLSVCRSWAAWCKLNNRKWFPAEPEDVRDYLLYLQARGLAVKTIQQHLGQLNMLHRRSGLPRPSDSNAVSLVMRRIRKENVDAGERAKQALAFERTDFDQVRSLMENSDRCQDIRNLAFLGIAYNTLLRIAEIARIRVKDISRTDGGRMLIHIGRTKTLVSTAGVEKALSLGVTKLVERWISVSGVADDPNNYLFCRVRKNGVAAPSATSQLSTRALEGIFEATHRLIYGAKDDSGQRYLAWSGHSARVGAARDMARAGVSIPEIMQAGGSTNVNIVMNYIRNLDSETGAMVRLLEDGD

[5] = molecular target: T5, Cre recombinase monomer with Y324L mutation
T5 chain: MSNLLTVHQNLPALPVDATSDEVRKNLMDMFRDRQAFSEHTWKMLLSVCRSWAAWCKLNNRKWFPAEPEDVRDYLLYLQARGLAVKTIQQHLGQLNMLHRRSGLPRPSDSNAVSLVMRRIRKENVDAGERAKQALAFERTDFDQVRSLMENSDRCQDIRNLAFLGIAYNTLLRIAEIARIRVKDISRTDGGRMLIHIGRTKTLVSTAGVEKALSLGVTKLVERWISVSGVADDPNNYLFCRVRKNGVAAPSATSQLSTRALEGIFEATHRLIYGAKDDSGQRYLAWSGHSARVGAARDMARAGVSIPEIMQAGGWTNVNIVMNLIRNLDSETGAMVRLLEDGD

[6] = molecular target: T6, Cre recombinase monomer with Y324A mutation
T6 chain: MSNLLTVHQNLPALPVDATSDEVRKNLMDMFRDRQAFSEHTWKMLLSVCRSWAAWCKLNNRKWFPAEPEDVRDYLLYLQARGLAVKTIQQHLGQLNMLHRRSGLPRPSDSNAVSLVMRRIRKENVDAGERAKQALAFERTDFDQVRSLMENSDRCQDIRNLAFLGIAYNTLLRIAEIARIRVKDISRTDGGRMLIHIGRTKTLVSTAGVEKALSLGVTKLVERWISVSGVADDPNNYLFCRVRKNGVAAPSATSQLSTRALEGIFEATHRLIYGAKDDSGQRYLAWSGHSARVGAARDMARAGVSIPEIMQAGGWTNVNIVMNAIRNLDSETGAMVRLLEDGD

[7] = molecular target: T7, Cre recombinase monomer with W315Q mutation
T7 chain: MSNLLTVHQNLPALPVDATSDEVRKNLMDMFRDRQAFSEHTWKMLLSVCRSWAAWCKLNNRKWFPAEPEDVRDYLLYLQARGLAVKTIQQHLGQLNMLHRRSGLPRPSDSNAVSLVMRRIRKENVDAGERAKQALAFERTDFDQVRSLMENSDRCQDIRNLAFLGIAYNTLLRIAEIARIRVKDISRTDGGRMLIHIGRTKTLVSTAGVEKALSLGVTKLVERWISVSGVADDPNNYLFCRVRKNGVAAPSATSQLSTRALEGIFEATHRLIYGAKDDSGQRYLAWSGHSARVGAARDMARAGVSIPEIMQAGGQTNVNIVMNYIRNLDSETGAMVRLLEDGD

[8] = molecular target: T8, Cre recombinase monomer with Y324M mutation
T8 chain: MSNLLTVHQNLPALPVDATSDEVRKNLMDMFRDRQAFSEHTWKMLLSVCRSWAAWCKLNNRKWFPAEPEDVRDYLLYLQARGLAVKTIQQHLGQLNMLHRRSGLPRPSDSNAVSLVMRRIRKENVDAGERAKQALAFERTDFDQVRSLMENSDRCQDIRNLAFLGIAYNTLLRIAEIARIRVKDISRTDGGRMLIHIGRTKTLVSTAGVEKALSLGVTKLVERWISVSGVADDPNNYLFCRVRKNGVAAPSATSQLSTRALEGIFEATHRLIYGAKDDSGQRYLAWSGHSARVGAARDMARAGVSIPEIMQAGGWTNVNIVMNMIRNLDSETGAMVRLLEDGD

B1: Cre recombinase monomer with Q311R mutation (protein)
chain: MSNLLTVHQNLPALPVDATSDEVRKNLMDMFRDRQAFSEHTWKMLLSVCRSWAAWCKLNNRKWFPAEPEDVRDYLLYLQARGLAVKTIQQHLGQLNMLHRRSGLPRPSDSNAVSLVMRRIRKENVDAGERAKQALAFERTDFDQVRSLMENSDRCQDIRNLAFLGIAYNTLLRIAEIARIRVKDISRTDGGRMLIHIGRTKTLVSTAGVEKALSLGVTKLVERWISVSGVADDPNNYLFCRVRKNGVAAPSATSQLSTRALEGIFEATHRLIYGAKDDSGQRYLAWSGHSARVGAARDMARAGVSIPEIMRAGGWTNVNIVMNYIRNLDSETGAMVRLLEDGD
- Median dimer activity (recombination on loxP) [1]: 95%
- Median dimer activity (recombination on loxP) [2]: 95%
- Median dimer activity (recombination on loxP) [3]: 96%
- Median dimer activity (recombination on loxP) [4]: 37%
- Median dimer activity (recombination on loxP) [5]: 95%
- Median dimer activity (recombination on loxP) [6]: 93%
- Median dimer activity (recombination on loxP) [7]: 49%
- Median dimer activity (recombination on loxP) [8]: 96%
